# Assay results published in patent US12258605B2, “Alkane oxidation by modified hydroxylases” (The California Institute of Technology, priority 2005, dated 2025).
# B1: Wild-type BM-3: wild-type cytochrome P450 BM-3 from Bacillus megaterium, SEQ ID NO:1 (protein, listed as Bacillus megaterium)
# chain: TIKEMPQPKTFGELKNLPLLNTDKPVQALMKIADELGEIFKFEAPGRVTRYLSSQRLIKEACDESRFDKNLSQALKFVRDFAGDGLFTSWTHEKNWKKAHNILLPSFSQQAMKGYHAMMVDIAVQLVQKWERLNADEHIEVPEDMTRLTLDTIGLCGFNYRFNSFYRDQPHPFITSMVRALDEAMNKLQRANPDDPAYDENKRQFQEDIKVMNDLVDKIIADRKASGEQSDDLLTHMLNGKDPETGEPLDDENIRYQIITFLIAGHETTSGLLSFALYFLVKNPHVLQKAAEEAARVLVDPVPSYKQVKQLKYVGMVLNEALRLWPTAPAFSLYAKEDTVLGGEYPLEKGDELMVLIPQLHRDKTIWGDDVEEFRPERFENPSAIPQHAFKPFGNGQRACIGQQFALHEATLVLGMMLKHFDFEDHTNYELDIKETLTLKPEGFVVKAKSKKIPLGGIPSPSTEQSAKKVRKKAENAHNTPLLVLYGSNMGTAEGTARDLADIAMSKGFAPQVATLDSHAGNLPREGAVLIVTASYNGHPPDNAKQFVDWLDQASADEVKGVRYSVFGCGDKNWATTYQKVPAFIDETLAAKGAENIADRGEADASDDFEGTYEEWREHMWSDVAAYFNLDIENSEDNKSTLSLQFVDSAADMPLAKMHGAFSTNVVASKELQQPGSARSTRHLEIELPKEASYQEGDHLGVIPRNYEGIVNRVTARFGLDASQQIRLEAEEEKLAHLPLAKTVSVEELLQYVELQDPVTRTQLRAMAAKTVCPPHKVELEALLEKQAYKEQVLAKRLTMLELLEKYPACEMKFSEFIALLPSIRPRYYSISSSPRVDEKQASITVSVVSGEAWSGYGEYKGIASNYLAELQEGDTITCFISTPQSEFTLPKDPETPLIMVGPGTGVAPFRGFVQARKQLKEQGQSLGEAHLYFGCRSPHEDYLYQEELENAQSEGIITLHTAFSRMPNQPKTYVQHVMEQDGKKLIELLDQGAHFYICGDGSQMAPAVEATLMKSYADVHQVSEADARLWLQQLEEKGRYAKDVWAG
# B2: 35-E11: P450 BM-3 variant, SEQ ID NO:7: 53-5H substitutions plus E464G and I710T (protein)
# chain: TIKEMPQPKTFGELKNLPLLNTDKPVQALMKIADELGEIFKFEAPGCVTRYLSSQRLIKEACDESRFDKNLSQALKFFRDFSGDGLFTSWTHEINWKKAHNILLPSFSQQAMKGYHAMMVDIAVQLVQKWERLNADEHIEVSEDMTRLTLDTIGLCGFNYRFNSFYRDQPHPFIISMVRALDEVMNKLQRANPDDPAYDENKRQCQEDIKVMNDLVDKIIADRKARGEQSDDLLTQMLNGKDPETGEPLDDGNISYQIITFLIAGHETTSGLLSFALYFLVKNPHVLQKVVEEAARVLVDPVPSYKQVKQLKYVGMVLNEALRLWPTFPAFSLYAKEDTVLGGEYPLEKGDEVMVLIPQLHRDKTIWGDDVEEFRPERFENPSAIPQHAFKPFGNGQRACIGQQFALHEATLVLGMMLKHFDFEDHTNYELDIKETLTLKPEGFVVKAKSKKIPLGGIPSPSTGQSAKKVRKKAENAHNTPLLVLYGSNMGTAEGTARDLADIAMSKGFAPQVATLDSHAGNLPREGAVLIVTASYNGHPPDNAKQFVDWLDQASADEVKGVRYSVFGCGDKNWATTYQKVPAFIDETLAAKGAENIADRGEADASDDFEGTYEEWREHMWSDVAAYFNLDIENSEDNKSTLSLQFVDSAADMPLAKMHGAFSTNVVASKELQQPGSARSTRHLEIELPKEASYQEGDHLGVIPRNYEGTVNRVTARFGLDASQQIRLEAEEEKLAHLPLAKTVSVEELLQYVELQDPVTRTQLRAMAAKTVCPPHKVELEALLEKQAYKEQVLAKRLTMLELLEKYPACEMKFSEFIALLPSIRPRYYSISSSPRVDEKQASITVSVVSGEAWSGYGEYKGIASNYLAELQEGDTITCFISTPQSEFTLPKDPETPLIMVGPGTGVAPFRGFVQARKQLKEQGQSLGEAHLYFGCRSPHEDYLYQEELENAQSEGIITLHTAFSRMPNQPKTYVQHVMEQDGKKLIELLDQGAHFYICGDGSQMAPAVEATLMKSYADVHQVSEADARLWLQQLEEKGRYAKDVWAG
# modifications: mutant P450 35-E11 protein sequence
# Assays:
# [1] = lauric acid; cited from earlier work
# [2] = T50 determination (heat inactivation of CO-binding); format: physicochemical
# Experimental: T50 determination. A solution of purified enzyme (1-3 μM) in 100 mM KPi pH 8.0 buffer was transferred on a PCR 96-well plate and incubated for 10 minutes at different temperatures (from 37° C. to 60° C.) in a PCR thermocycler. The plate was then cooled on ice, centrifuged at 1500 g for 10 min. 160 μL of the protein solution was then transferred on a 96-well microtiter plate with 40 μL of sodium hydrosulfite 0.1 M in 1 M KPi pH 8.0. A protein sample incubated at room temperature and one incubated on ice were included in the series. Concentration of folded protein was then determined by measuring CO-binding difference spectra using absorption at 450 and 490 nm and extinction coefficient ε450-490=91,000 M^−1 cm^−1. CO-binding signals were normalized to protein concentration of the sample incubated at 4° C. T50 values were calculated as midpoint inactivation temperatures from nonlinear fitting to the heat-inactivation curves. Experiments were carried out in triplicate.
# As a first step, we aimed at increasing the thermostability of 35E11 heme domain in order to obtain a more ‘evolvable’ parent. […] To regain stability and allow further evolution, stabilizing mutations, derived from a thermostable peroxygenase, was tested in single and in combination (Table 16). The effect on enzyme's thermostability of each single mutation or combination thereof on thermostability was evaluated by monitoring temperature-dependent inactivation of the enzyme's CO-binding (FIG. 36C). Among 35E11 derivatives, ETS8 was selected as the best candidate for further evolution experiments, in that its higher thermostability (ΔT50=+5.1° C.) was accompanied by only a 20% decrease in propane activity on propane. […]
# T50 values determined from heat-inactivation curves of heme-dependent CO-binding spectral shift show how mutations accumulated during laboratory evolution affected enzyme stability (FIG. 37E) and enable an estimation per-mutation stability penalties for each directed evolution round (FIG. 37F). […]
Molecule,hydroxylation at the ω-1 position [1],"T50 ([2]; 10 minutes incubation, midpoint inactivation temperature of CO-binding)",ΔT50 ([2]; relative to 35E11),ΔT50 ([2]; stability loss from wild-type to 35E11)
B1,48%,–,–,–
B2,–,43.4 ± 0.6 °C,0 °C,−11.6 °C
